Data from the Human Domainome abundance scans (Beltran et al. 2025).
± gives the uncertainty stated by the source.

B1: Chromodomain-helicase-DNA-binding protein 4, residues 623 to 675; numbered along this chain, Q14839 (parent)
chain: MIHRILNHSVDKKGHVHYLIKWRDLPYDQASWESEDVEIQDYDLFKQSYWNHR

Variants of: B1
Test: abundance fitness (aPCA) (normalised: wild type 0, dead -1); higher = more abundant; growth selection in yeast, the domain comes from the species named
Conditions: Homo sapiens

| Variant | abundance fitness |
| --- | --- |
| V37L | -0.058 ± 0.075 |
| V37M | 0.171 ± 0.11 |
| V37N | 0.155 ± 0.088 |
| V37P | -0.746 ± 0.11 |
| V37Q | 0.052 ± 0.14 |
| V37R | 0.212 ± 0.089 |
| V37T | -0.001 ± 0.083 |
| V37W | -0.985 ± 0.21 |
| V37Y | -0.361 ± 0.1 |
| E38C | -0.144 ± 0.13 |
| E38D | -0.175 ± 0.15 |
| E38F | -0.113 ± 0.11 |
| E38G | -0.227 ± 0.1 |
| E38H | -0.324 ± 0.14 |
| E38I | -0.122 ± 0.11 |
| E38L | -0.199 ± 0.086 |
| E38M | -0.095 ± 0.13 |
| E38N | -0.472 ± 0.16 |
| E38P | -0.2 ± 0.11 |
| E38Q | -0.018 ± 0.15 |
| E38R | -0.37 ± 0.091 |

| Variant | abundance fitness |
| --- | --- |
| E38S | -0.157 ± 0.087 |
| E38T | -0.187 ± 0.098 |
| E38V | -0.217 ± 0.085 |
| E38W | -0.257 ± 0.12 |
| E38Y | -0.337 ± 0.14 |
| I39A | -0.805 ± 0.12 |
| I39C | -0.753 ± 0.2 |
| I39D | -0.992 ± 0.21 |
| I39E | -1.02 ± 0.2 |
| I39F | 0.139 ± 0.15 |
| I39G | -0.847 ± 0.12 |
| I39H | -0.39 ± 0.15 |
| I39K | -0.879 ± 0.2 |
| I39L | 0.026 ± 0.089 |
| I39M | -0.462 ± 0.14 |
| I39N | -1.06 ± 0.24 |
| I39P | -0.897 ± 0.16 |
| I39Q | -0.764 ± 0.18 |
| I39R | -0.756 ± 0.098 |
| I39S | -0.745 ± 0.11 |
| I39T | -0.72 ± 0.13 |

| Variant | abundance fitness |
| --- | --- |
| I39V | -0.722 ± 0.12 |
| I39W | -0.818 ± 0.13 |
| I39Y | -0.195 ± 0.14 |
| Q40A | -0.052 ± 0.086 |
| Q40C | -0.043 ± 0.14 |
| Q40D | -0.047 ± 0.11 |
| Q40E | -0.061 ± 0.13 |
| Q40F | -0.548 ± 0.2 |
| Q40H | -0.122 ± 0.11 |
| Q40I | -0.252 ± 0.14 |
| Q40K | 0.041 ± 0.088 |
| Q40L | -0.271 ± 0.092 |
| Q40M | -0.14 ± 0.099 |
| Q40P | -0.061 ± 0.11 |
| Q40R | -0.161 ± 0.083 |
| Q40S | -0.286 ± 0.091 |
| Q40T | -0.036 ± 0.094 |
| Q40V | -0.131 ± 0.085 |
| Q40W | -0.549 ± 0.13 |
| Q40Y | -0.504 ± 0.13 |
| D41C | -0.807 ± 0.14 |

| Variant | abundance fitness |
| --- | --- |
| D41E | -0.507 ± 0.13 |
| D41F | -0.331 ± 0.17 |
| D41G | -0.283 ± 0.093 |
| D41H | -0.459 ± 0.19 |
| D41I | -0.929 ± 0.19 |
| D41K | -0.555 ± 0.14 |
| D41L | -0.846 ± 0.13 |
| D41M | -0.79 ± 0.14 |
| D41N | -0.151 ± 0.11 |
| D41Q | -0.191 ± 0.14 |
| D41R | -0.863 ± 0.12 |
| D41S | -0.481 ± 0.09 |
| D41T | -0.892 ± 0.15 |
| D41V | -0.81 ± 0.11 |
| D41W | -0.529 ± 0.12 |
| D41Y | -0.431 ± 0.13 |
| Y42K | -0.767 ± 0.49 |
| Y42L | -0.592 ± 0.31 |
| D43A | -0.205 ± 0.081 |
| D43C | -0.236 ± 0.16 |
